The chains are these.
B1: His6::Bru 1–146 (isolated amino-terminal domain) (domain or fragment, Drosophila, UniProt O02374 1-146, looked up)
chain: MFTSRASFLANRRMIFDFSEKNNDIYLDAFGMSDKSSSATNSLPNSPIHSNNNNPSLLNNNNNNSNGTSSNNSLNVGNNNSNPSLGGTNSNALVSVGSNGIMSAAGLVNNNNNPCSANRNVVAMVDDDACFRLDTDATVTYGEKEP
notes: also called Bru amino-terminal domain; source: E. coli, purified (Ni-NTA); not shown: His6, N-terminal, kept
B2: His6::Bru (full-length Bruno, Bru+) (natural protein, Drosophila, UniProt O02374 1-604, looked up)
chain: MFTSRASFLANRRMIFDFSEKNNDIYLDAFGMSDKSSSATNSLPNSPIHSNNNNPSLLNNNNNNSNGTSSNNSLNVGNNNSNPSLGGTNSNALVSVGSNGIMSAAGLVNNNNNPCSANRNVVAMVDDDACFRLDTDATVTYGEKEPDPDNIKMFVGQVPKSMDESQLREMFEEYGAVHSINVLRDKATGISKGCCFVTFYTRRAALKAQDALHNVKTLNGMYHPIQMKPADSENRNERKLFVGMLNKKLNENDVRKLFEVHGAIEECTVLRDQNGQSKGCAFVTFATKHAAISAIKVTLSQNKIMEGCTSPLVVKFADTQKEKEQKKIQQIQANLWNLASNINIPLGQTATSVTTPILPNPPQQPSPVLGADAITPASIQLLQQLQAVGLQHQLLQALTGLGAQQSSSATDTSAVAAAGLLTPMTVQNLAAIAAMTQPSLSNAAAAAARATSPGSAQLTNTAALLWSDPNPMASAYMSTAAGLPQFGSASALSTSPLASVALSAAAAAAAGKQIEGPEGCNLFIYHLPQEFTDTDLASTFLPFGNVISAKVFIDKQTSLSKCFGFVSFDNPDSAQVAIKAMNGFQVGTKRLKVQLKKPKDSKPY
notes: Bruno (Bru; encoded by the aret gene), Drosophila; full-length Bru in pET-15b; Vector pET-15b; The tethered transgene proteins carry RRM2/RRM3 point mutations; source: E. coli, purified (Ni-NTA); not shown: His6, N-terminal, kept
B3: His6::Bru Δ334–416 (natural protein, Drosophila, UniProt O02374 1-604, looked up)
chain: MFTSRASFLANRRMIFDFSEKNNDIYLDAFGMSDKSSSATNSLPNSPIHSNNNNPSLLNNNNNNSNGTSSNNSLNVGNNNSNPSLGGTNSNALVSVGSNGIMSAAGLVNNNNNPCSANRNVVAMVDDDACFRLDTDATVTYGEKEPDPDNIKMFVGQVPKSMDESQLREMFEEYGAVHSINVLRDKATGISKGCCFVTFYTRRAALKAQDALHNVKTLNGMYHPIQMKPADSENRNERKLFVGMLNKKLNENDVRKLFEVHGAIEECTVLRDQNGQSKGCAFVTFATKHAAISAIKVTLSQNKIMEGCTSPLVVKFADTQKEKEQKKIQQIQAAAGLLTPMTVQNLAAIAAMTQPSLSNAAAAAARATSPGSAQLTNTAALLWSDPNPMASAYMSTAAGLPQFGSASALSTSPLASVALSAAAAAAAGKQIEGPEGCNLFIYHLPQEFTDTDLASTFLPFGNVISAKVFIDKQTSLSKCFGFVSFDNPDSAQVAIKAMNGFQVGTKRLKVQLKKPKDSKPY
notes: also called Bru lacking most of the linker domain between RRMs 2 and 3; source: E. coli, purified (Ni-NTA); not shown: His6, N-terminal, kept

These results are taken from publication PMC4344327, “Region-Specific Activation of oskar mRNA Translation by Inhibition of Bruno-Mediated Repression” (PLoS Genetics, 2015).

This assay concerns the target T1, GST::Bru (full-length Bruno fused to GST) (Drosophila, UniProt O02374 1-604).
T1 construct: Bruno (Bru; encoded by the aret gene), Drosophila; full-length bru cDNA subcloned into pGEX-2TK; Vector pGEX-2TK; source: E. coli CodonPlus, extract, immobilized on Glutathione Sepharose 4B
T1 sequence (looked up): B2 chain
Kind of assay: pull-down; GST::Bru, GST::Cup or GST immobilized on Glutathione Sepharose 4B from E. coli extract and washed; ~100 ng N-terminally His6-tagged Bru protein in 80 μl binding buffer (50mM Tris-Cl pH7.5, 150mM NaCl, 10% glycerol, 1mM DTT, 0.1% IGEPAL-CA-630), 2–3 hr at room temperature; Western blot with anti-His antibody. The note with it: both partners purified. (In general: Immunoblotting shows a protein as a band on a membrane.)
With B1, the binding result was “binds”.
The same measure for B2: “binds”.
The same measure for B3: “binds”.
